{"source": "patent US8030048B2", "about": "“Enantioselective epoxide hydlrolase and method for preparing and enantiopure epoxide using the same” (Korea Ocean Research and Development Institute, priority 2005, dated 2011)", "molecules": {"B1": {"name": "Erythrobacter litoralis HTCC2594 epoxide hydrolase rEEH1 (EEH1), SEQ ID NO: 13 (Erythrobacter litoralis HTCC2594) (protein)", "chain": "MSEIRPFVLDVPKADLDRLHRKLDDTRWPEKEPVDDWSQGTPLAALQDLAAYWRDGYDWRAGEAKLNALGQFITEIDGLDIHFLHVRSKCDDALPLILTHGWPGSVREFFDVIPLLTEPQDGMAFHVVAPSLPGFGFSGKPRNTGWGVDKIATAWATLMQRLGYTEWVAQGGDWGSAVTTAIGAQAPEGCKGIHVNMPIGRPGPDDMANPGPDELKALKALKFYQDWDSGYSKQQSTRPQTIGYSLVDSPVGLAGWIFEKMFFWTDNGGSPFDTLSMDAILDNIMLYWLPETGASAARLYWESFARFGEGTVAIPAGVSAFPKEIIPAPRKWAERRYADLVYWNECEKGGHFAAWEQPELFAAELRACFSLMR", "notes": "microsomal-EH-like"}}, "key": {"[1]": {"target": "T1, Erythrobacter litoralis HTCC2594 epoxide hydrolase rEEH1 (EEH1), SEQ ID NO: 13 (Erythrobacter litoralis, UniProt Q2NAV3)", "T1 construct": "microsomal-EH-like", "T1 sequence (Q2NAV3 1-373)": "B1 chain", "assay": "Kinetic parameters of purified rEEH1 by GC analysis with (R)- or (S)-styrene oxide", "assay_type": "biochemical", "details": "100 mM potassium phosphate pH 8.0, 30° C.", "experimental": "(§1) Kinetic parameters of the rEEH1, rEEH2, rEEH3, sEEH, nEEH, and rEEH were determined by a GC analysis using (R)- or (S)- styrene oxide substrate. 100 ul of purified EHases were mixed with various concentrations of (R)- or (S)- styrene oxide in a 10 ml tube containing 1 ml of potassium phosphate buffer (100 mM, pH 8.0), and shake-incubated at 200 rpm and a temperature of 30° C. The extraction mixtures were extracted with 2 ml of hexane, and enantiomeric excess [ee; ee=100×(S−R)/(S+R)] toward enantiopure styrene oxide was analyzed with a chiraldex gamma-cyclodextrin trifluoroacetyl(G-TA) capillary GC column. Wherein, the FIG. 8 was diagramed with GC analysis for the hydrolyzing activities of enantioselective EHases (rEEH1, rEEH2, and rEEH3) toward racemic styrene oxide.\n(§2) Kinetic parameters were estimated by non-linear regression analysis using a Sigma Plot program, and various substrates as depicted in FIG. 1 were also tested for the enantioselective hydrolyzing activity by rEEH1, rEEH2, rEEH3, sEEH, nEEH, and rEEH."}, "[2]": {"assay": "Effects of pH and temperature on the EHase activity of rEEH1, rEEH2 and rEEH3", "assay_type": "biochemical", "experimental": "The effect of pH on the EHase activity was measured with 50 mM sodium acetate-acetic acid buffer (pH 4.0 and 6.0), 50 mM MES buffer (pH 6.0 to 7.0), 50 mM Phosphate buffer (pH 7.0 to 9.0), and 50 mM Glycine buffer (pH 9.0 and 10.0), and the optimum reaction temperature on the EHase activity was measured over a temperature of range from 10 to 70° C. at pH 7.5."}, "[3]": {"assay": "Kinetic parameters of purified EHases by GC analysis, (S)-styrene oxide", "assay_type": "biochemical", "details": "(S)-enantiomer of styrene oxide, Table 5", "experimental": "as §1, §2"}, "[4]": {"assay": "Kinetic parameters of purified EHases by GC analysis, (R)-styrene oxide", "assay_type": "biochemical", "details": "(R)-enantiomer of styrene oxide, Table 5", "experimental": "as §1, §2"}, "[5]": {"assay": "Enantioselective hydrolyzing activity of purified EHases toward SO", "assay_type": "biochemical", "experimental": "as §1, §2"}, "[6]": {"assay": "Enantioselective hydrolyzing activity of purified EHases toward GPE", "assay_type": "biochemical", "experimental": "as §1, §2"}, "[7]": {"assay": "Enantioselective hydrolyzing activity of purified EHases toward EX", "assay_type": "biochemical", "experimental": "as §1, §2"}, "[8]": {"assay": "Enantioselective hydrolyzing activity of purified EHases toward EB", "assay_type": "biochemical", "experimental": "as §1, §2"}, "[9]": {"assay": "Enantioselective hydrolyzing activity of purified EHases toward EF", "assay_type": "biochemical", "experimental": "as §1, §2"}, "[10]": {"assay": "Substrate selectivity of rEEH1, rEEH2 and rEEH3 toward various epoxide substrates", "assay_type": "biochemical", "details": "purified enzyme", "experimental": "Also, the substrate selectivity of rEEH1, rEEH2 and rEEH3 toward various epoxide substrates depicted in FIG. 1 was same to Table 4.\nas §2"}, "[11]": {"substrate": "c1ccc([C@@H]2CO2)cc1", "assay": "Kinetic parameters of purified rEEH1 by GC analysis with (R)- or (S)-styrene oxide", "assay_type": "biochemical, Erythrobacter litoralis HTCC2594", "details": "other: 100 mM potassium phosphate pH 8.0, 30° C.", "experimental": "as §1, §2"}, "[12]": {"substrate": "c1ccc([C@H]2CO2)cc1", "assay": "Kinetic parameters of purified rEEH1 by GC analysis with (R)- or (S)-styrene oxide", "assay_type": "biochemical, Erythrobacter litoralis HTCC2594", "details": "other: 100 mM potassium phosphate pH 8.0, 30° C.", "experimental": "as §1, §2"}}, "data": [{"molecule": "c1ccc([C@@H]2CO2)cc1", "note": "[(R)-styrene oxide]", "values": [{"measurement": "Vmax", "setting": "[1]", "value": 2.3, "unit": "µmol/min"}]}, {"molecule": "c1ccc([C@H]2CO2)cc1", "note": "[(S)-styrene oxide]", "values": [{"measurement": "Vmax", "setting": "[1]", "value": 1.18, "unit": "µmol/min"}]}, {"molecule": "B1", "values": [{"measurement": "optimum temperature (maximum hydrolysis rate)", "setting": "[2]; 10 to 70° C. at pH 7.5", "value": 50, "unit": "°C"}, {"measurement": "optimum pH", "setting": "[2]; activity toward styrene oxide, pH 4.0 to 10.0", "value": 6.5}, {"measurement": "kcat Km", "setting": "[3]", "value": 10600, "unit": "M⁻¹ s⁻¹"}, {"measurement": "kcat Km", "setting": "[4]", "value": 16300, "unit": "M⁻¹ s⁻¹"}, {"measurement": "Hydrolysis rate SO (R)", "setting": "[5]; (R)-enantiomer", "value": "28.0 (×10^−2) mg/min"}, {"measurement": "Hydrolysis rate SO (S)", "setting": "[5]; (S)-enantiomer", "value": "9.00 (×10^−2) mg/min"}, {"measurement": "enantiomer preference in hydrolysis of styrene oxide, in words", "setting": "[5]; purified enzyme", "value": "(R)-styrene oxide was hydrolyzed faster than (S)-styrene oxide"}, {"measurement": "Hydrolysis rate GPE (R)", "setting": "[6]; (R)-enantiomer", "value": "11.0 (×10^−2) mg/min"}, {"measurement": "Hydrolysis rate GPE (S)", "setting": "[6]; (S)-enantiomer", "value": "20.0 (×10^−2) mg/min"}, {"measurement": "Hydrolysis rate EX (R)", "setting": "[7]; (R)-enantiomer", "value": "7.00 (×10^−2) mg/min"}, {"measurement": "Hydrolysis rate EX (S)", "setting": "[7]; (S)-enantiomer", "value": "8.00 (×10^−2) mg/min"}, {"measurement": "Hydrolysis rate EB (R)", "setting": "[8]; (R)-enantiomer", "value": "15.0 (×10^−2) mg/min"}, {"measurement": "Hydrolysis rate EB (S)", "setting": "[8]; (S)-enantiomer", "value": "15.0 (×10^−2) mg/min"}, {"measurement": "Hydrolysis rate EF (R)", "setting": "[9]; (R)-enantiomer", "value": "4.00 (×10^−2) mg/min"}, {"measurement": "Hydrolysis rate EF (S)", "setting": "[9]; (S)-enantiomer", "value": "15.0 (×10^−2) mg/min"}, {"measurement": "substrate selectivity, in words", "setting": "[10]", "value": "hydrolyzed enantioselectively toward monosubstituted epoxides with bulky ring at C-1 position"}, {"measurement": "Km", "setting": "[11]", "value": 2900, "unit": "µM"}, {"measurement": "Vmax", "setting": "[11]", "value": 2.3, "unit": "µmol/min"}, {"measurement": "kcat", "setting": "[11]", "value": 49.1, "unit": "s⁻¹"}, {"measurement": "Km", "setting": "[12]", "value": 2300, "unit": "µM"}, {"measurement": "kcat", "setting": "[12]", "value": 24.5, "unit": "s⁻¹"}]}]}
